According to PMC2175199 (The Journal of Cell Biology, 2000):
Each block holds one binder with its values, some of them ahead of it.

Tests used:
Assay in all cases: co-IP
XSA2 = target: T1, XSA2 (Xenopus laevis (endogenous in egg …, UniProt Q9DGN0 1-1194))
T1 sequence: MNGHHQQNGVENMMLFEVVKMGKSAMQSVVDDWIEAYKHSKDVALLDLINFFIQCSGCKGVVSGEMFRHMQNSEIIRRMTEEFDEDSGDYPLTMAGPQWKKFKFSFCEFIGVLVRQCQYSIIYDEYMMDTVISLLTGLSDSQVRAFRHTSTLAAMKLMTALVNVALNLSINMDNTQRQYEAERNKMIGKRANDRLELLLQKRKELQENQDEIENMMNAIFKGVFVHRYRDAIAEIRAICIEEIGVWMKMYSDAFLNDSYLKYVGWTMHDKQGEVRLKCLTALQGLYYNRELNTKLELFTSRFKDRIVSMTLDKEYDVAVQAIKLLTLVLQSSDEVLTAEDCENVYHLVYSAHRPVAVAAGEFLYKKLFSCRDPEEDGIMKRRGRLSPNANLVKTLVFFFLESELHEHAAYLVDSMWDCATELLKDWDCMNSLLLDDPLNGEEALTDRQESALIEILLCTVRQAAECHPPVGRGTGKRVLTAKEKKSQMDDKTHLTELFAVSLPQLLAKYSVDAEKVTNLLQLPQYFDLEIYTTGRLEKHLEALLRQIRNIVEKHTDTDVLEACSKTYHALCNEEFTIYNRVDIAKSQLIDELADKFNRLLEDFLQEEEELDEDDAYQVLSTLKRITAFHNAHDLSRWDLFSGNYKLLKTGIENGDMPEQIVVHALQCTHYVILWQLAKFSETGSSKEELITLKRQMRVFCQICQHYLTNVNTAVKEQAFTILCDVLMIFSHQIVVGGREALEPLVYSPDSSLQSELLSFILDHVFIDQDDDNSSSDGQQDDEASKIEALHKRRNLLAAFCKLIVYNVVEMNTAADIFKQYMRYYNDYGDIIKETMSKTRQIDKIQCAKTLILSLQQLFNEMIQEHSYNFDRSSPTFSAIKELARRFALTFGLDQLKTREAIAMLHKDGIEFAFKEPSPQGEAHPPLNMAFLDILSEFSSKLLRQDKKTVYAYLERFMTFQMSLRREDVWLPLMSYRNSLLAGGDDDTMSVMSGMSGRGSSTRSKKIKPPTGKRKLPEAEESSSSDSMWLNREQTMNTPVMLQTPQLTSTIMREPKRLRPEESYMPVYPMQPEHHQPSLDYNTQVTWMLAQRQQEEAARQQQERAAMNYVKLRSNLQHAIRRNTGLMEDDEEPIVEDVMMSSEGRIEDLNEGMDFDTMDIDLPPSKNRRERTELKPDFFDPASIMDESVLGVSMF

XSA1 = target: T2, XSA1 (Xenopus laevis (endogenous in egg …, UniProt Q9DGN1 1-1265))
T2 sequence: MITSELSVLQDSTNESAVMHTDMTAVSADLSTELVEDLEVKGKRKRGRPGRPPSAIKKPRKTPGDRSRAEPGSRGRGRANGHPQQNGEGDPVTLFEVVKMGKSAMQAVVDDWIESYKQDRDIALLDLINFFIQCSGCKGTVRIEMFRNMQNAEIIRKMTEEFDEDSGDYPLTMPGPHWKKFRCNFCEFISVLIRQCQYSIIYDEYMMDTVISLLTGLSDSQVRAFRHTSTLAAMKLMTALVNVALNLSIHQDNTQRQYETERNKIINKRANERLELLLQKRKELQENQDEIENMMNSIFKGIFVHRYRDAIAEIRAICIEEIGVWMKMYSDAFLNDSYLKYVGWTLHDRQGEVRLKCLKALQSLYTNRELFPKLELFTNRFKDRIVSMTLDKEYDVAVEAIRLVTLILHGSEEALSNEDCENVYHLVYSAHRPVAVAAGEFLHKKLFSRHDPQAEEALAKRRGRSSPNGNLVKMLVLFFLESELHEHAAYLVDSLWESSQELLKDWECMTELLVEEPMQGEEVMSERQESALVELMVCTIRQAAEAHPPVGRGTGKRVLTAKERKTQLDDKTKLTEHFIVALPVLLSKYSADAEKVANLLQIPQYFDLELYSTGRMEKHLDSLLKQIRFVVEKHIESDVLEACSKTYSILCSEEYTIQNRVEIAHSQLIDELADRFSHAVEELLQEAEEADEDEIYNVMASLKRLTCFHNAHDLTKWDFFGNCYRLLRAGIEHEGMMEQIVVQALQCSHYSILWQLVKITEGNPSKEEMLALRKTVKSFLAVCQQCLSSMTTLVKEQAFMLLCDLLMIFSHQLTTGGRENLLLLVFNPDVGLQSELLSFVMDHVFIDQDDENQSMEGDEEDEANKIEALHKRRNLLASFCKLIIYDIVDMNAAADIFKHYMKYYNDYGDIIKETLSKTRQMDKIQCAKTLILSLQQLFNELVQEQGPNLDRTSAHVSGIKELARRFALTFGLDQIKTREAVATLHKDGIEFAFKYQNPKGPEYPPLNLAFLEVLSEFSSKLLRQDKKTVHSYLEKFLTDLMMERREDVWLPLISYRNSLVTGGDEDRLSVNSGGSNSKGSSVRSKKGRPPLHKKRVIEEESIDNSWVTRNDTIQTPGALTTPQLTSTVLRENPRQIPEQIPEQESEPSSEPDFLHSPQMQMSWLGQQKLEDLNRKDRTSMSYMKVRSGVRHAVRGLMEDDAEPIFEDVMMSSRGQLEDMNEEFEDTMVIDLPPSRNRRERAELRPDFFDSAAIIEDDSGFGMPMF

hSA1 = target: T3, hSA1 (human (endogenous in HeLa), UniProt Q8WVM7 1-1258)
T3 sequence: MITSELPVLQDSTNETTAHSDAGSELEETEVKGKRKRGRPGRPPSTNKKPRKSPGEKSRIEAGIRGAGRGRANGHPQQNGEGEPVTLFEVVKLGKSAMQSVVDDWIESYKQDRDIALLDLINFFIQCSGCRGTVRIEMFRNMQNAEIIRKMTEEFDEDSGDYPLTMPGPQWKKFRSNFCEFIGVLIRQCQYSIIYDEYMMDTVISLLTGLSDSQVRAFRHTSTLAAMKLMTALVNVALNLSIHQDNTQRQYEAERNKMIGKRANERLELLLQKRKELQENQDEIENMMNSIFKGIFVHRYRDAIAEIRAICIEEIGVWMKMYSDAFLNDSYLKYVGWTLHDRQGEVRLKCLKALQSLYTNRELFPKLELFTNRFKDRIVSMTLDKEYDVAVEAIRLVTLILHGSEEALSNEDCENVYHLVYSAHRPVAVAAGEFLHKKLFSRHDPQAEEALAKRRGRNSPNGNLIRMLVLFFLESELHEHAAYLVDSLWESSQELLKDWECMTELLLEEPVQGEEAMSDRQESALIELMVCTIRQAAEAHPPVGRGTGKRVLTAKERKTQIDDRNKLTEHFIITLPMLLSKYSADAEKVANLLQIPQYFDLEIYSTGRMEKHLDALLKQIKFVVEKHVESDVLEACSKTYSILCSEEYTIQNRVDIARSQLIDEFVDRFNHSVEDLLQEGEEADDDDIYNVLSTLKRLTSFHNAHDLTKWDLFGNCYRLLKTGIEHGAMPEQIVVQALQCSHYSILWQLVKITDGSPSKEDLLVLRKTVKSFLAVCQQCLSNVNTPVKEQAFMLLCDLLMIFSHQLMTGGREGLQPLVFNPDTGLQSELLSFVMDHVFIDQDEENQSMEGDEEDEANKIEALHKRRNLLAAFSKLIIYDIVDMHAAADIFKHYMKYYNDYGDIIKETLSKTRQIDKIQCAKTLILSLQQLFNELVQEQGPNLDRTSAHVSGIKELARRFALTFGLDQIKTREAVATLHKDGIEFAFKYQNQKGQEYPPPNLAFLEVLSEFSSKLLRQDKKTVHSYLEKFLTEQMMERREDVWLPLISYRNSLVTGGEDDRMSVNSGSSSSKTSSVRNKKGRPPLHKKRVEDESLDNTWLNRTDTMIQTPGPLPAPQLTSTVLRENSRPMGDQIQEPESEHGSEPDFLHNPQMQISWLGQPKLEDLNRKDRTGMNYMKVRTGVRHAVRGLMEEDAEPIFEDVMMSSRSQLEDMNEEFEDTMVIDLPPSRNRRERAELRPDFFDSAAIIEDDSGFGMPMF

hSA2 = target: T4, hSA2 (human (endogenous in HeLa), UniProt Q8N3U4 1-1231)
T4 sequence: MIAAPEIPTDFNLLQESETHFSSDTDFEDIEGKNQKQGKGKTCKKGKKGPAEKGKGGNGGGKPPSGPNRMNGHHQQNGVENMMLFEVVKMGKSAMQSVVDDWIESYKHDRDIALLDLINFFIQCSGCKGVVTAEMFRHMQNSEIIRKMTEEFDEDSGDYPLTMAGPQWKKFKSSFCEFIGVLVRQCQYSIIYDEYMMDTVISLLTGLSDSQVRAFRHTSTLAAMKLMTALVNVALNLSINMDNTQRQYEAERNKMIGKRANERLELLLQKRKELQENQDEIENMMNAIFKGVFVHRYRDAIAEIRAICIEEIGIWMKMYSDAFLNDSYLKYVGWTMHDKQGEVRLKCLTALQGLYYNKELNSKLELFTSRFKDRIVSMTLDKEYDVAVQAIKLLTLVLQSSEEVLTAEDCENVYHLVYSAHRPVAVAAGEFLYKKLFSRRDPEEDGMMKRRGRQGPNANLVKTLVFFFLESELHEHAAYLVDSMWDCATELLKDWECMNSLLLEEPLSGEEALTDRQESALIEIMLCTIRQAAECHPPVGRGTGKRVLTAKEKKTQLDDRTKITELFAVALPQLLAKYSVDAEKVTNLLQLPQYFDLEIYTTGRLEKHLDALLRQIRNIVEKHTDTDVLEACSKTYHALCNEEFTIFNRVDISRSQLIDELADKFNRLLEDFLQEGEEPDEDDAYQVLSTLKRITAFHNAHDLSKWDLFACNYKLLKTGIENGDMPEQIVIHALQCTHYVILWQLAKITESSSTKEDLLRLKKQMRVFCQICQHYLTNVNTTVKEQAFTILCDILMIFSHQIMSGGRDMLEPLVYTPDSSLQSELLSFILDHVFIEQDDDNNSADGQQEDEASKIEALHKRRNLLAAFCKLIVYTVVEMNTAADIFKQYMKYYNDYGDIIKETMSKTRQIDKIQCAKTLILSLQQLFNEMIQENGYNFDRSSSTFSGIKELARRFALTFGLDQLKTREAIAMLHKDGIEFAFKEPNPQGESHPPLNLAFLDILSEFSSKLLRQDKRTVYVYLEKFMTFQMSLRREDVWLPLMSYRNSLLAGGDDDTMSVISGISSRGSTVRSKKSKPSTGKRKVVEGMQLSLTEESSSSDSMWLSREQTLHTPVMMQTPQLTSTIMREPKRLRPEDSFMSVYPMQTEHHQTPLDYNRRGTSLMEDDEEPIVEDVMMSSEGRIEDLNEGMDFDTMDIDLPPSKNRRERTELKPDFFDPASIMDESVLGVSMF

percent depleted from the extract by anti-XSA2 (XSA2): ~10%
percent depleted from the extract by anti-XSA1 (XSA1): ~90%
B1: XRAD21 (natural protein)
chain: MFYAHFVLSKRGPLAKIWLAAHWDKKLTKAHVFECNLESSVESIICPKVKMALRTSGHLLLGVVRIYHRKAKYLLADCNEAFIKIKMAFRPGVVDLPEENREAAYNAITLPEEFHDFDQPLPDLDDIDVAQQFSLNQSRVEEITMREEVSNINILQDNDFGDFGMDDREMMREGSAFEDDMLTTNASNLKLEPEQSTSQLNEKSNHLEYDDQYKDDNFGEGNEGGILDDKLLSNDAGGIFDDPPAMPEEGVAMPEQPVHDDLDDDDNVSMGAPDSPDSVDPVEPLPTMTDQTTLVPNEEEAFALEPIDITVKETKAKRKRKLIVDSVKELDSKTIRAQLSDYSDIVTTLDLAPPTKKLMMWKETGGVEKLFSLPAQPLWNTRLLKLFTRCLTPLVLDDLRKRRKGGEADNLDEFLKEFENPEVPREELRPQDVIDQPILEEASHLQESLMEGSRTHLDDTIMPPPPPKQGVKRDSLQMEPEPMPMMQEAEPQIEMPPPPLPPPLELPPEEPQSISDLIPELNLLPEKEKEKDEEEEEEEEDTTGTEQDQEERRWNKRTQQMLHGLQRVLAKTGAESISLLDLCRNTNRKQAAAKFYSFLVLKKQQAIELTQREPYSDIVATPGPRFHTV

percent removed from the extract by anti-XSA1 (hSA1): ~25%
percent removed from the extract by anti-XSA2 (hSA2): ~75%
B2: hRAD21 (natural protein)
chain: MFYAHFVLSKRGPLAKIWLAAHWDKKLTKAHVFECNLESSVESIISPKVKMALRTSGHLLLGVVRIYHRKAKYLLADCNEAFIKIKMAFRPGVVDLPEENREAAYNAITLPEEFHDFDQPLPDLDDIDVAQQFSLNQSRVEEITMREEVGNISILQENDFGDFGMDDREIMREGSAFEDDDMLVSTTTSNLLLESEQSTSNLNEKINHLEYEDQYKDDNFGEGNDGGILDDKLISNNDGGIFDDPPALSEAGVMLPEQPAHDDMDEDDNVSMGGPDSPDSVDPVEPMPTMTDQTTLVPNEEEAFALEPIDITVKETKAKRKRKLIVDSVKELDSKTIRAQLSDYSDIVTTLDLAPPTKKLMMWKETGGVEKLFSLPAQPLWNNRLLKLFTRCLTPLVPEDLRKRRKGGEADNLDEFLKEFENPEVPREDQQQQHQQRDVIDEPIIEEPSRLQESVMEASRTNIDESAMPPPPPQGVKRKAGQIDPEPVMPPQQVEQMEIPPVELPPEEPPNICQLIPELELLPEKEKEKEKEKEDDEEEEDEDASGGDQDQEERRWNKRTQQMLHGLQRALAKTGAESISLLELCRNTNRKQAAAKFYSFLVLKKQQAIELTQEEPYSDIIATPGPRFHII
